Reference: patent US20250059258A1

Experiments:
[1] = target: Tremfya Fab with a lambda light chain and binding specificity for IL23 (from the monoclonal antibody guselkumab); assay: BLI (ForteBio), biotinylated ligand on sensor, 1:1 fit
[2] = target: Herceptin Fab with a kappa light chain and binding specificity for Her2/neu (from the monoclonal antibody trastuzumab); assay: as above
[3] = target: dimeric human IgG-lambda (Southern Biotech, Birmingham AL); assay: as above
[4] = target: Dupixent (IgG4 monoclonal antibody); assay: BLI, biotinylated ligand on sensor; 'Binding affinity (nM)'
[5] = target: Ajovy (IgG2 monoclonal antibody); assay: as above
[6] = target: Praluent (IgG1 monoclonal antibody); assay: as above

Row | Binder | Kd [1] [nM] | Kd [2] [nM] | Kd [3] [nM] | Kd [4] [nM] | Kd [5] [nM] | Kd [6] [nM]
1 | affinity ligand SEQ ID NO: 79 (designed binder, biotinylated (AviTag system)) MGGGGSAAAGDEADRWADLGAAYAARGDYDRAIEYYQRALELDPNNAWAWWDLGVAYAARGDYDRAIEYYQRALELDPNNAVAWRRLGHAYAARGDYDRAIEYYQRALELDPNNELAREQLERARRARHGQAGQGGGSGLNDIFEAQKIEWHECHHHHHH | 28 | 67 | < 1 | – | – | –
2 | affinity ligand SEQ ID NO: 82 (designed binder, biotinylated (AviTag system)) MGGGGSAAAGDEAGRWYDLGAAYAARGDYDRAIEYYQRALELDPNNAWAWWELGVAYAARGDYDRAIEYYQRALELDPNNAVAWARLGIAYAARGDYDRAIEYYQRALELDPNNEVARDALEYARRARRGQAGQGGGSGLNDIFEAQKIEWHECHHHHHH | 6 | 23 | < 1 | – | – | –
3 | affinity ligand SEQ ID NO: 154 (designed binder, biotinylated (AviTag system)) MGDEAERWYDLGAAYAARGDYDRAIEYYQRALELDPNDAWAWWELGVAYAARGDYDRAIEYYQRALELDPNNAVAWARLGIAYAARGDYDRAIEYYQRALELDPNNEVARDALEYARRARRCHHHHHH | – | – | – | 13 | 92 | < 1
4 | affinity ligand SEQ ID NO: 83 (designed binder, biotinylated (AviTag system)) MGGGGSAAAGDEADRWADLGAAYAARGDYDRAIEYYQRALELDPNNAWAWWDLGVAYAARGDYDRAIEYYQRALELDPNNAVAWRRLGHAYAARGDYDRAIEYYQRALELDPNNELAREQLGRARRARRGQAGQGGGSGLNDIFEAQKIEWHECHHHHHH | 8 | 22 | < 1 | – | – | –
5 | affinity ligand SEQ ID NO: 163 (designed binder, biotinylated (AviTag system)) MGHHHHHHDEAERWYDLGAAYAARGDYDRAIEYYQRALELDPNDAWAWWELGVAYAARGDYDRAIEYYQRALELDLNNAVAWARLGIAYAARGDYDRAIEYYQRALELDPNNEVARDALEYARRARRAPKC | – | – | – | 13 | – | < 1
6 | affinity ligand SEQ ID NO: 164 (designed binder, biotinylated (AviTag system)) MGDEAERWYDLGAAYAARGDYDRAIEYYQRALELDPNDAWAWWELGVAYAARGDYDRAIEYYQRALELDLNNAVAWARLGIAYAARGDYDRAIEYYQRALELDPNNEVARDALEYARRARRC | – | – | – | 82 | – | < 1
7 | affinity ligand SEQ ID NO: 165 (designed binder, biotinylated (AviTag system)) MDEAAHWEVQGAAYAARGDYDRAIEYYERALELDPNNAWAWEHLGWAYAARGDFDRAIEYYERALELDPDDAHAWFRLGFAYAARGDYDRAIEYYERALELDPEDELARAELESARRARQGQAGQGWAEFRQRLAAIRTRLEALGGSEAELAAFEREIAAFESELQAYAGAGNPEVEALRREAAAIRDELQAYRHNHHHHHHC | – | – | – | 31 | – | < 1
8 | affinity ligand SEQ ID NO: 166 (designed binder, biotinylated (AviTag system)) MDEAARWEVQGAAYAARGDYDRAIEYYERVLELDPNDAWAWEHLGWAYAARGDYDRAIEYYERALEVDPDDAHAWFRLGFAYAARGDYDRAMEYYERALELDPEDELARAELESARRARQGQAGQGWAEFRQRLAAIRTRLEALGGSEAELAAFEREIAAFESELQAYAGAGNPEVEALRREAAAIRDELQAYRHNHHHHHHC | – | – | – | 120 | – | < 1
9 | affinity ligand SEQ ID NO: 167 (designed binder, biotinylated (AviTag system)) MDEAARWEVQGAAYAARGDYDRAIEYYERALELDPNNAWAWEHLGWAYAARGDYDRAIEYYERALELDPDDAHSWFRLGFAYAVRGDYDRAIEYYERALELDPEDELARAELESARRARQGQAGQGWAEFRQRLAAIRTRLEALGGSEAELAAFEREIAAFESELQAYAGAGNPEVEALRREAAAIRDELQAYRHNHHHHHHC | – | – | – | 31 | – | < 1
10 | affinity ligand SEQ ID NO: 168 (designed binder, biotinylated (AviTag system)) MDEVARWEVQGAAYAARGGYDRAIEYYERALELDPNNAWAWEHLGWAYAARGDYDRAIEYYERALELDPDDAHEWFRLGFAYAARGDYDRAIEYYERALELDPEDELARAELESARRARQGQAGQGWAEFRQRLAAIRTRLEALGGSEAELAAFEREIAAFESELQAYAGAGNPEVEALRREAAAIRDELQAYRHNHHHHHHC | – | – | – | 232 | – | < 1
11 | affinity ligand SEQ ID NO: 170 (designed binder, biotinylated (AviTag system)) MGDEADRWYDQGAAYAARGDYDRAIEYYERALELDPNDAWAWWELGVAYAARGDYDRAIEYYQRALELDPNDAVAWARLGHAYAARGDYDRAIEYYQRALELDPNNEAARSNLEYARRAAACGLNDIFEAQKIEWHEHHHHHH | – | – | – | 28 | – | < 1
12 | affinity ligand SEQ ID NO: 84 (designed binder, biotinylated (AviTag system)) MGGGGSAAAGDEGGRWEGQGAAYAARGDYDRAIEYYERALELDPNNAWAWWDLGVAYAARGDYDRAIEYYERALELDPDDATAWSRLGHAYAARGDYDRAIEYYERALELDPEDETARYLLEHARRARQGQAGQGGGSGLNDIFEAQKIEWHECHHHHHH | 18 | 32 | < 1 | – | – | –
13 | affinity ligand SEQ ID NO: 171 (designed binder, biotinylated (AviTag system)) MGDEADRWYYQGAAYAARGDYDRAIEYYERALELDPNNAWAWWELGVAYAARGDYDRAIEYYQRALELDPNDAVAWARLGHAYAARGDYDRAIEYYQRALELDPNNEAARSNLEYARRAAACGLNDIFEAQKIEWHEHHHHHH | – | – | – | 242 | – | < 1
14 | affinity ligand SEQ ID NO: 172 (designed binder, biotinylated (AviTag system)) MGDEADRWYDQGAAYAARGDYDRAIEYYQRALELDPNNAWAWWELGVAYAARGDYDRAIEYYQRALELDPNDAVAWSRLGHAYAARGDYDRAIEHYQRALELDPNNEVARHLLEVARRAAACGLNDIFEAQKIEWHEHHHHHH | – | – | – | 215 | – | < 1
15 | affinity ligand SEQ ID NO: 173 (designed binder, biotinylated (AviTag system)) MGDEADRWYDQGAAYAARGDYDRAIEYYQRALELDPNNAWAWWELGVAYAARGDYDRAIEYYQRALELDPNDAVAWSRLGHAYAARGDYDRAIEYYQRALELDPNNEVARHLLEVARRAAACGLNDIFEAQKIEWHEHHHHHH | – | – | – | 95 | – | < 1
16 | affinity ligand SEQ ID NO: 174 (designed binder, biotinylated (AviTag system)) MGDEADRWYDQGAAYAARGDYDRAIEYYERALELDPNNAWAWWELGVAYAARGDYDRAIEYYQRALELDPNDAVAWARLGHAYAARGDYDRAIEYYQRALELDPNNEAARSNLEYARRAAACGLNDIFEAQKIEWHEHHHHHH | – | – | – | 221 | – | < 1
17 | affinity ligand SEQ ID NO: 85 (designed binder, biotinylated (AviTag system)) MGGGGSAAAGDEAERWDYLGAAYAARGDYDRAIEYYQRALELDPNNAWAWWDLGLAYAARGDYDRAIEYYQRALELDPNNAVAWFRLGWAYAARGDYDRAIEYYQRALELDPNNELARSELENARRARRGQAGQGGGSGLNDIFEAQKIEWHECHHHHHH | 26 | 53 | < 1 | – | – | –
18 | affinity ligand SEQ ID NO: 86 (designed binder, biotinylated (AviTag system)) MGGGGSAAAGDEAQRWENQGAAYAARGDYDRAIECYESALELDPNNAWAWWELGVAYAARGDYDRAIEYYERALELDPDDAIAWSRLGHAYAARGDYDRAIEYYERALELDPEDETARYLLEHARRARQGQAGQGGGSGLNDIFEAQKIEWHECHHHHHH | 8 | 28 | < 1 | – | – | –
19 | affinity ligand SEQ ID NO: 87 (designed binder, biotinylated (AviTag system)) MGGGGSAAAGDEAQHWENQGAAYAARGDYDRAIEYYERALELDPNNAWAWWELGVAYAARGDYDRAIEYYERALELDPDDATVWSRLGHAYAARGDYDRAIEYYERALELDPEDETARYLLEHARRARQGQAGQGGGSGLNDIFEAQKIEWHECHHHHHH | 10 | 84 | < 1 | – | – | –
20 | affinity ligand SEQ ID NO: 88 (designed binder, biotinylated (AviTag system)) MGGGGSAAAGDEAQCWENQGAAYAARGDYDRAIEYYERALELDPNNAWAWWELGVAYAARGDYDRAIEYYERALELDPDDATAWSRLGHAYAARGDYDRAIEYYERALELDPEDETARYLLEHARRARQGQAGQGGGSGLNDIFEAQKIEWHECHHHHHH | 10 | 32 | < 1 | – | – | –
21 | affinity ligand SEQ ID NO: 91 (designed binder, biotinylated (AviTag system)) MGGGGSAAAGDEAQRWENQGAAYAARGDYDRAIEYYGRALELDPNNAWAWWELGVAYAARGDYDRAIEYYERALELDPDDATAWSRLGHAYAARGDYDRAIEYYERALELDPENETARYLLEHARRARQGQAGQGGGSGLNDIFEAQKIEWHECHHHHHH | 11 | 46 | < 1 | – | – | –
22 | affinity ligand SEQ ID NO: 80 (designed binder, biotinylated (AviTag system)) MGGGGSAAAGDEADRWAALGAAYAARGDYDRAIEYYQRALELDPNNAWAWWDLGVAYAARGDYDRAIEYYERALELDPDDAHAWFRLGWAYAARGDYDRAIEYYERALELDPEDETARDVLEGARRARQGQAGQGGGSGLNDIFEAQKIEWHECHHHHHH | 4 | 7 | < 1 | – | – | –
23 | affinity ligand SEQ ID NO: 93 (designed binder, biotinylated (AviTag system)) MGGGGSAAAGDEAQRWENQGAAYAARGDYDRAIEYYERALELDPNNAWAWWELGVAYAARGDFDRAIEYYERALELDPDDATVWSRLGHAYAARGDYDRAIEYYERALELDPVDETARYLLEHARRARQGQAGQGGGSGLNDIFEAQKIEWHECHHHHHH | 4 | 15 | < 1 | – | – | –
24 | affinity ligand SEQ ID NO: 94 (designed binder, biotinylated (AviTag system)) MGGGGSAAAGDEAVRWEIQGAAYAARGDYDRAIEYYERALELDPNNAWAWWELGVAYAARGDYDRAIEYYERALELDPDDAHVWFRLGWAYAVRGDYDRAIEYYERALELDPEDELARRILEDARRARQGQAGQGGGSGLNDIFEAQKIEWHECHHHHHH | 3 | 14 | < 1 | – | – | –
25 | affinity ligand SEQ ID NO: 81 (designed binder, biotinylated (AviTag system)) MGGGGSAAAGDEAERWYDLGAAYAARGDYDRAIEYYQRALELDPNNAWAWWELGVAYAARGDYDRAIEYYQRALELDPNNAVAWRRLGIAYAARGDYDRAIEYYQRALELDPNNEVARDALEYARRARRGQAGQGGGSGLNDIFEAQKIEWHECHHHHHH | 8 | 31 | < 1 | – | – | –
